In patent US6432920B1, “Nck SH3 binding peptides” (Cytogen Corporation, priority 1994, dated 2002):

Key:
Src SH3-GST [1] = target: T1, Src SH3-GST (Homo sapiens, UniProt P12931); test: Phage clone binding to immobilized GST-SH3 (elution titering / anti-phage ELISA); settings: FIG. 14
T1 construct: Bacterially expressed Src SH3 glutathione-S-transferase (Src-GST) fusion protein was purified from bacterial lysates; made in house; host or cells: bacteria (pGEX vector)
Procedure: Library screens were performed as previously described. Kay, B. K., et al., in Gene (1993) 128:59-65. Briefly, 1'10^11 pfu TSAR 9, TSAR 12, or R8C phage in Buffer A were incubated in a Src SH3-GST-coated well for 2 hours. The wells were washed, and bound phage were eluted with 100 μL 50 mM glycine-HCl (pH 2.2), transferred to a new well, and neutralized with […] 200 mM NaHPO4 (pH 7.0). Recovered phage were used to infect 1×10^9 DH5αF′ E. coli cells in 20 mL 2×YT; the infected cells were grown overnight, resulting in a 1000- to 10,000-fold amplification of phage titer. Amplified phage were panned twice more, as above, excepting the amplification step. Binding phage recovered after the third round of panning were plated at a low density on a lawn of DH5αF′ E. coli cells to yield isolated plaques for clonal analysis. […]
(§1) Indeed, the ability of isolated phage clones to bind to several SH3 domains derived from a variety of different proteins can be investigated by the manner described above. […] From these experiments, the relative specificity of different Src SH3 binding clones for SH3 domains derived from other proteins is determined.
To evaluate the binding of isolates to various targets proteins, enzyme-linked-immuno-assays (ELISA) were also performed. […] Plates are read with a plate reader (Molecular Devices, Menlo Park, Calif.) at 405 nm wavelength. […]

Yes SH3 = target: T2, Yes SH3 (Homo sapiens, UniProt P07947); test: Phage clone binding to immobilized GST-SH3 (anti-phage ELISA); settings: FIG. 14
T2 construct: a construct expressing the SH3 domain of Yes was obtained from Dr. Marius Sudol (Rockefeller University); made in house; host or cells: bacteria (pGEX vector)
T2 sequence (P07947 91-152 limits assumed): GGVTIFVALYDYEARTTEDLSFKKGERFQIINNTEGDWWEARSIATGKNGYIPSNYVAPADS
Procedure: as §1, with “above. GST-SH3 fusion proteins containing SH3 domains from a variety of different proteins are bound to microliter wells. An aliquot of the aforementioned phage stocks (50 μL) is introduced into wells containing the different GST-SH3 fusion proteins.” for “above.”
To evaluate the binding of isolates to various targets proteins, enzyme-linked-immuno-assays (ELISA) were also performed. […] Plates are read with a plate reader (Molecular Devices, Menlo Park, Calif.) at 405 nm wavelength.
Library screens were performed as described in Sparks, A., B., et al., in Methods in Enzymology, (1995) 255:498-509. […] The wells were washed five times with PBS+0.1% Tween 20, and bound phage were detected by anti-phage ELISA according to the manufacturer's instructions (Pharmacia, Piscataway, N.J.). […]
To explore further the capacity of SH3 domains to discriminate between different SH3 ligands, we investigated the binding of phage expressing various peptide ligands to a panel of SH3 domains. […] The wells were washed several times, and bound phage were detected with an anti-phage antibody (see FIG. 14). […]

Src SH3-GST [2] = target: T1, Src SH3-GST; test: Biotinylated synthetic peptide binding ELISA to immobilized Src SH3-GST; settings: not tested

## MPPPVPPRPPGTL
Src SH3-GST [1]
  cross-reactivity of Src SH3 domain with phage clone selected with another SH3 domain: cross-reacted
Yes SH3
  cross-reactivity of Yes SH3 domain with phage clone selected with another SH3 domain: cross-reacted

## RSTPAPPVPPRTTR
Src SH3-GST [2]
  surmised binding to a variety of SH3 domains: strong but generic binding
